Measured values published in PMC3930596, “Insights into the Initiation of JC Virus DNA Replication Derived from the Crystal Structure of the T-Antigen Origin Binding Domain”.

Experiments:
[1] = target: JCV T-antigen origin-binding domain (OBD; residues 132-261) (JC virus); experiment: crystal structure; crystal form 2, space group I4_(1), 2.6 Å; 0.1 M Tris pH 8.5, 0.2 M LiSO4, 30% PEG 4000, 4 C; contacts with symmetry mates
[2] = target: JCV T-antigen origin-binding domain (OBD; residues 132-261) (JC virus); experiment: crystal structure; crystal form 1, space group C2, 1.64 Å, two molecules in the asymmetric unit; 0.1 M sodium citrate pH 5.6, 30% PEG 3350, 18 C; interfaces analysed with PISA
[3] = target: JCV T-antigen origin-binding domain (residues 132-261) with tartrate-modified Lys168 (crystal form 3) (JC virus); experiment: crystal structure; crystal form 3, space group P4_(1), 1.32 Å, one molecule in the asymmetric unit; 0.19 M sodium tartrate, 19% PEG 3350, 4 C; contacts with symmetry mates
[4] = target: T1, JCV T-antigen origin-binding domain (OBD) (JC virus (JCV), UniProt P03072 132-261); experiment: ITC; ITC (VP-ITC): 10 mM sodium phosphate pH 7.0, 50 mM NaCl; temperature not stated; OBD in syringe (~80 uM for Site II, 40 uM for Site I), DNA 1.5 uM / 1.0 uM; conditions: protein: recombinant; tags: N-terminal GST removed by thrombin; chain copies: 4; blunt
T1 sequence: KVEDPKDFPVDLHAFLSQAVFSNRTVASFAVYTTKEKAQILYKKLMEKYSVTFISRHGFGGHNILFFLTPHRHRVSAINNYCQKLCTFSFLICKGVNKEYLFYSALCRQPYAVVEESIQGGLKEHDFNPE

[5] = target: T1, JCV T-antigen origin-binding domain …; experiment: ITC; average of four titrations; titration shown in Fig. 4A ~278 nM; N = 4 OBDs per duplex; ITC (VP-ITC): 10 mM sodium phosphate pH 7.0, 50 mM NaCl; temperature not stated; OBD in syringe (~80 uM for Site II, 40 uM for Site I), DNA 1.5 uM / 1.0 uM; conditions: protein: recombinant; tags: N-terminal GST removed by thrombin; chain copies: 4; blunt

## JCV T-antigen origin-binding domain (OBD; residues 132-261) (domain or fragment)
[1]
  stoichiometry N: 4
[2]
  stoichiometry N: 4

## JCV T-antigen origin-binding domain (residues 132-261) with tartrate-modified Lys168 (crystal form 3) (domain or fragment)
[3]
  stoichiometry N: 4

B1: JCV Site I 28 bp (dsDNA)
DNA 1: GCGTGGAGGCTTTTTAGGAGGCCAGGGA
DNA 2: TCCCTGGCCTCCTAAAAAGCCTCCACGC
[4]
  Kd: 18.3 nM

B2: JCV Site II 33 bp (dsDNA)
DNA 1: TACAGGAGGCCGAGGCCGCCTCCGCCTCCAAGC
DNA 2: GCTTGGAGGCGGAGGCGGCCTCGGCCTCCTGTA
[5]
  Kd: 299 nM
